# Results: PMC2330189 (Acta Crystallographica Section F: Structural Biology and …, 2007)
# Target: the molecule itself
# Experiment: SEC
protein,measurement,value
"1,3-propanediol dehydrogenase from Klebsiella pneumoniae (enzyme, UniProt Q59477 1-387, looked up) MSYRMFDYLVPNVNFFGPNAISVVGERCQLLGGKKALLVTDKGLRAIKDGAVDKTLHYLREAGIEVAIFDGVEPNPKDTNVRDGLAVFRREQCDIIVTVGGGSPHDCGKGIGIAATHEGDLYQYAGIETLTNPLPPIVAVNTTAGTASEVTRHCVLTNTETKVKFVIVSWRNLPSVSINDPLLMIGKPAALTAATGMDALTHAVEAYISKDANPVTDAAAMQAIRLIARNLRQAVALGSNLQARENMAYASLLAGMAFNNANLGYVHAMAHQLGGLYDMPHGVANAVLLPHVARYNLIANPEKFADIAELMGENITGLSTLDAAEKAIAAITRLSMDIGIPQHLRDLGVKEADFPYMAEMALKDGNAFSNPRKGNEQEIAAIFRQAF",stoichiometry N,10
